From US20130184160

How the values were obtained:
Experiment in all cases: filter
[1] = target: Alpha-1 acid glycoprotein (UniProt P02763); conditions: T positions from B-TTP (quinoline-8-boronic acid linked at 5-position of dU via triazole), outside primer; specificity control
[2] = target: T1, Fetuin (UniProt P12763); conditions: T positions from B-TTP (quinoline-8-boronic acid linked at 5-position of dU via triazole), outside primer; specificity control
T1 sequence: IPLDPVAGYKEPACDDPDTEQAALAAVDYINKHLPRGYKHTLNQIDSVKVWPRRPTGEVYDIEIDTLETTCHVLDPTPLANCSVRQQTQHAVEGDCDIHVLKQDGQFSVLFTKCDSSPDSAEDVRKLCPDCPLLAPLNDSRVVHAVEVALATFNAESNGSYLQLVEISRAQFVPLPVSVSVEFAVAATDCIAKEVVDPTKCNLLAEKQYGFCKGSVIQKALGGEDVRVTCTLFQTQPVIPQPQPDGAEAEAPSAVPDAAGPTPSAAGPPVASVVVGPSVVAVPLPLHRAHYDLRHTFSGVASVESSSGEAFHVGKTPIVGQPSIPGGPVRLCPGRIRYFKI

[3] = test system: Fibrinogen (glycosylated, untreated), P02671-2+P02675+P02679; conditions: T positions from B-TTP; average Kd of pool after round 13
Fibrinogen (glycosylated, untreated), P02671-2+P02675+P02679, sequence (P02671 other isoform, or with tags, fused parts or gaps, chain 1 of 3): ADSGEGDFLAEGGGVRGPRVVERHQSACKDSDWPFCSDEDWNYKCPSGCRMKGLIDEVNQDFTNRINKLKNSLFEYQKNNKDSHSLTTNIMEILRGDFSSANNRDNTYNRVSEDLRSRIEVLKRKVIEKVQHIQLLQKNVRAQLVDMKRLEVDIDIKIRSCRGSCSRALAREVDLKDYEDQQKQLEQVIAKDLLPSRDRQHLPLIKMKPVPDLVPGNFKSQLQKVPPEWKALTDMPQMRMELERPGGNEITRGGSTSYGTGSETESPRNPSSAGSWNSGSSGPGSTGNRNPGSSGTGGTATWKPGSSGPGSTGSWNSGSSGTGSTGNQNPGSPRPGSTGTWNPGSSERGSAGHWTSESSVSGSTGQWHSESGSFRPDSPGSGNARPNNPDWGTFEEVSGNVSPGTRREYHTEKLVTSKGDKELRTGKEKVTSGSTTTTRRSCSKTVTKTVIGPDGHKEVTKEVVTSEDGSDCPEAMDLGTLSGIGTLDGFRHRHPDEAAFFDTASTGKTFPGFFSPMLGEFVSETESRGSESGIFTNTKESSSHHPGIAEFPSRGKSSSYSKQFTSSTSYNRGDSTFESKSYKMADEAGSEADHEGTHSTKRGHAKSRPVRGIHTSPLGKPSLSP
Fibrinogen (glycosylated, untreated), P02671-2+P02675+P02679, sequence (P02675 31-491, chain 2 of 3): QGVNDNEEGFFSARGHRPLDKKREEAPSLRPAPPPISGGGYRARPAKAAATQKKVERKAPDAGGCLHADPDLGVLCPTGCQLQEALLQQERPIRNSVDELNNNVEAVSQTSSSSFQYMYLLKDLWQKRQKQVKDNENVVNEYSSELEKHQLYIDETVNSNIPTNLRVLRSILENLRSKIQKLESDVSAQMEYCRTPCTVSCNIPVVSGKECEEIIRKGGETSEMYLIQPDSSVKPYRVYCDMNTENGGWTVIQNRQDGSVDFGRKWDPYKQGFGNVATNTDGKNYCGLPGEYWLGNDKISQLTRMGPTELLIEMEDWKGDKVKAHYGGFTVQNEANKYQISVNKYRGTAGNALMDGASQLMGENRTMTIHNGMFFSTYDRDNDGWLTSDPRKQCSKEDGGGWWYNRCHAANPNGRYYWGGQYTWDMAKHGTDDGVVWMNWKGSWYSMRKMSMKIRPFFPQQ
Fibrinogen (glycosylated, untreated), P02671-2+P02675+P02679, sequence (P02679 27-453, chain 3 of 3): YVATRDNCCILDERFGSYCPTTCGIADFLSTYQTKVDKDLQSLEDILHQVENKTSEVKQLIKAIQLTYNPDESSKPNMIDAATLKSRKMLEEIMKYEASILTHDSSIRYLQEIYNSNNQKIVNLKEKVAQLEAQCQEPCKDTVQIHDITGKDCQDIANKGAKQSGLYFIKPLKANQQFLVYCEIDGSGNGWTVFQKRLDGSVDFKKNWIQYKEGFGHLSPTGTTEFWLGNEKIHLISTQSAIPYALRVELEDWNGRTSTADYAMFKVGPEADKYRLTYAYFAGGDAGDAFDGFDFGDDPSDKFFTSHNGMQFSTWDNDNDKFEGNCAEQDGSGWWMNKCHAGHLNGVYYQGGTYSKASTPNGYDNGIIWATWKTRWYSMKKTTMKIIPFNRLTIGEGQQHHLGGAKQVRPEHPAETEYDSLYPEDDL

Alpha-1 acid glycoprotein, sequence (P02763 19-201): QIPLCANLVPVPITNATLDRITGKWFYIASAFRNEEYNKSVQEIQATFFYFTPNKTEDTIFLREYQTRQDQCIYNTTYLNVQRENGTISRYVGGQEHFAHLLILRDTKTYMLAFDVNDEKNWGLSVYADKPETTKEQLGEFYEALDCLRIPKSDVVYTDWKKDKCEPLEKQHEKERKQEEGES

| Sequence | Kd [1] [µM] | Kd [2] [µM] | Kd [3] [µM] |
| --- | --- | --- | --- |
| CCTTCGTTGTCTGCCTTCGTAGCGGATCGAATTACGCGTTAACGGCAACCGATAACGGGACCGATTGCACACCCTTCAGAATTCGCACCA [85A B-TTP (114H)] | 0.7 | 2.2 |  |
| CCTTCGTTGTCTGCCTTCGTNNNNNNNNNNNNNNNNNNNNNNNNNNNNNNNNNNNNNNNNNNNNNNNNNNACCCTTCAGAATTCGCACCA [Round 13 fibrinogen pool] |  |  | 5 |
